Laboratory results: the supplement of paper PMC10126150
± gives the standard deviation of the averaged measurements.

Test system: ATP
Test: switch fluorescence ratio, 500 uM ATP over buffer (Cy3 cluster intensity, sum of 5 cycles each) (fold (ratio)); higher = stronger signal-on switching upon ATP binding; sequences stand for … in TCGTCGGCAGCGTCAGATGTGTATAAGAGACAGTTTTTTTTTTTTTTTTTTTTTTTTT…TC
Settings: aptamer strand: ATP DNA aptamer (quencher-CACCTGGGGGAGTATTGCGGAGGAAGG + anchor), 100 nM annealed; ATP concentration: 500 uM
Procedure, shortened: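 Values give the fluorescence ratio for each switch-domain sequence, averaged from per-cluster ratios of summed target-cycle to summed buffer-cycle Cy3 intensity. The Cy3-labelled switching-strand clusters sat on a modified Illumina MiSeq flow-cell, were annealed to 100 nM quencher-labelled ATP aptamer, and were imaged in selection buffer, then after 15 min with 500 uM ATP at 22 °C. Five cycles ran with NaOH stripping and re-annealing between them, and clusters outside 100-1000 RFU were excluded.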
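Further: ATP exposure 15 min at 22 °C before imaging.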

Sequence	switch fluorescence ratio
AAGAAAGGTC	0.994 ± 0.12
GCATCCGAAG	1.274 ± 0.0035
AGGGGGAGCA	0.9697 ± 0.0045
TTGGGGGGAT	1.02 ± 0.053
TTTCTATGCG	0.959 ± 0.025
TTTCGGGGTT	1.04 ± 0.1
AGATATTGGG	0.992 ± 0.068
GATTGTGCGG	0.981 ± 0.025
GGAATGCGGG	0.9701 ± 0.0077
GGGATCCAGG	1.23 ± 0.087
GCCGATGCTG	0.978 ± 0.042
TTTCTAAGGA	0.978 ± 0.017
AGCACGTTTT	1.01 ± 0.025
ATTTGTGTGG	0.973 ± 0.021
AAAATTCAAG	0.983 ± 0.016
GAAGGGCATT	0.9963 ± 0.0015
GGTATTTATC	0.986 ± 0.038
TTTTACGGTT	1.03 ± 0.069
TACTATGTGG	1.013 ± 0.0014
TAGTTAATTG	0.987 ± 0.067
TTTTAGTTGT	0.994 ± 0.032
TTGATCGGGG	1.01 ± 0.028
CGAAAGGGAC	1.033 ± 0.0092
ACGTGTAGGG	1 ± 0.025
ATCTTGAGAC	1.02 ± 0.042

Sequence	switch fluorescence ratio
TCGTCGATTC	1.12 ± 0.02
TGGGGTGGTG	0.9992 ± 0.0038
CTGAAAACTA	1.02 ± 0.059
GGGGTTGGAC	0.9851 ± 0.0016
TTTGCTCAGG	1.09 ± 0.037
TTTGTAGGCG	0.983 ± 0.13
GCAATATGCA	1.03 ± 0.05
TTGATTATTG	0.999 ± 0.032
GAGGTTGCGG	0.96 ± 0.036
ATGGAAAGGG	0.989 ± 0.041
GGGCCCTGGT	1.01 ± 0.013
CTTCTTAAGA	0.984 ± 0.046
TTTTACCCAG	1.11 ± 0.012
GACTTATTGG	1.02 ± 0.032
GATGGATAGT	0.992 ± 0.02
TTGTTGAAAC	1.03 ± 0.085
GCTTGAAATT	0.986 ± 0.062
AGTCTGAGAC	1.013 ± 0.0089
TAATTTGCGT	1 ± 0.019
ATGTGGACCT	1.26 ± 0.065
TATTTACAGG	1.033 ± 0.0084
GATGAGTATA	1 ± 0.021
GCCCGTATGC	1.07 ± 0.011
AATAGGGGCT	1.02 ± 0.054
GCTTACAACG	1.02 ± 0.029

Sequence	switch fluorescence ratio
AAAAGGTTTG	1.022 ± 0.0081
TTGTTGCTTA	1.05 ± 0.006
GAACCAGTAC	1.82 ± 0.032
AAAAGGGACG	1.05 ± 0.12
AACTCTTAAG	1.03 ± 0.02
ACACTAGGTT	1.06 ± 0.051
AAACTTGCCC	1.09 ± 0.012
ATGTATTCTT	0.987 ± 0.052
TTCATGATTT	1.034 ± 0.0045
GAAGAATCTG	1.03 ± 0.016
TATAGGATGG	0.98 ± 0.028
TCAGTCAGCT	1 ± 0.039
ACGAGGTAAG	1.079 ± 0.0031
CGGTATACTG	1.04 ± 0.049
CATGTTGGGT	1.008 ± 0.007
TTTCTTGGTA	1.02 ± 0.024
TCATTTAAGG	0.987 ± 0.02
TTCTGCAGGT	0.995 ± 0.011
TTTCTTCCAT	1.05 ± 0.1
AGGAGTGTCG	1.04 ± 0.039
GTATTTTGGC	1.025 ± 0.0052
TTTGATAATA	1.02 ± 0.056
TAAAGATATC	0.972 ± 0.028
TTTTTTCTAC	1.31 ± 0.67
CCTTATTTTC	0.9984 ± 0.0059

Sequence	switch fluorescence ratio
AAGAATATCA	1.02 ± 0.016
GACATGTAAA	1.048 ± 0.0023
GGTCCGTAGG	1.01 ± 0.033
AAGATTTGAG	0.992 ± 0.01
GGGCAATTGC	1.01 ± 0.059
AGGGTGCCGT	0.988 ± 0.08
GAGTGGGCGG	0.996 ± 0.071
GCGGCGGTGC	1.02 ± 0.031
GGTCGGACGT	0.992 ± 0.086
AAACGAAATT	1.03 ± 0.068
TTTTAGAGGT	0.96 ± 0.033
CATTAGGGGT	0.978 ± 0.012
ATGTGAGAGG	0.991 ± 0.022
AGGCGCGGGT	0.998 ± 0.069
AGGGGCGGGC	0.884 ± 0.13
TTTGAGGTAA	1.008 ± 0.0083
CTATTCAGGG	1.02 ± 0.066
CGGTTGGGTG	0.97348 ± 6.3e-05
TTGGAGTTGT	1.02 ± 0.098
GAGGGGTTTA	1 ± 0.027
TCAGGGTGAA	1.02 ± 0.041
GGGGAAAGTA	1.03 ± 0.03
TCAGGCTAGC	1.07 ± 0.026
TTACCAGATT	0.982 ± 0.033
TTATATGGGA	1.01 ± 0.018

Sequence	switch fluorescence ratio
TTTTAATTGG	1.01 ± 0.066
GGGTGTGCGC	1.0134 ± 5.8e-05
GTGTATGAGA	1.002 ± 0.0083
CGTTGTTGTT	0.989 ± 0.045
TCTTAGGAGG	0.9691 ± 0.0023
CGGGAATCGA	1 ± 0.012
ATAGACTAGA	0.9856 ± 0.003
TAGTTTTGAA	0.997 ± 0.072
CGAAGAGGGG	0.995 ± 0.016
AGGCTAAGAT	1.0077 ± 0.001
GCAGGAAGAG	1.0184 ± 0.00041
GAAGTAGAGT	0.963 ± 0.028
GCATGATAAC	1.04 ± 0.02
ATCCTGGATA	1.003 ± 0.01
CGTGATGATT	0.9809 ± 0.0078
TTATTGTGTA	0.979 ± 0.025
TCTAAGGGGG	1.015 ± 0.0074
CGGGAGAGGT	0.988 ± 0.011
AGAGAGCGAA	1.01 ± 0.022
TTGTGCTTTA	1.006 ± 0.0062
TAAAGAAGGT	1.01 ± 0.033
ATTTTGTCCA	1.02 ± 0.021
GATAAAGATA	1.02 ± 0.043
TAAGGACGAG	1.02 ± 0.013
GGCGCCGGAA	0.98 ± 0.031

Sequence	switch fluorescence ratio
GGTTCTTTTT	1.02 ± 0.011
CAAATCGTCG	0.957 ± 0.022
CGGGGCTAGC	1.02 ± 0.026
AGATGGGGGG	1.02 ± 0.033
TACTTTGCTC	1.03 ± 0.016
CGGTTTGAGT	0.983 ± 0.019
CAGTGATGGA	1.007 ± 0.0046
ACGGTTCCTG	1.001 ± 0.0061
GCCATGTTGA	1.02 ± 0.0063
GCTGTTTTGT	1.004 ± 0.0092
TTTGGGGAAA	1.16 ± 0.42
AATTTTCGGA	0.991 ± 0.013
GGTTCATGAT	0.993 ± 0.024
CAGGATGCGA	1.05 ± 0.016
TGTGGCCGTT	1.03 ± 0.059
GGAGGCTAGC	1.01 ± 0.054
CAGGGGTTTT	1.32 ± 0.54
CATAGCTTTT	1.01 ± 0.012
TGTTGTGTAG	0.977 ± 0.021
GTGGGGAAAA	0.994 ± 0.035
GGGGGCATGA	0.966 ± 0.015
TACAGCTGTG	0.9865 ± 0.0083
ATTTGTGAGA	0.9979 ± 0.0051
CCTGGGTGAA	1.2 ± 0.03
GGGGGGAAGG	1.01 ± 0.03

Sequence	switch fluorescence ratio
TAAATCGTAG	0.991 ± 0.0099
TCATAGGTTT	0.974 ± 0.038
GGGATGTGCT	0.957 ± 0.012
AGGGAGTACA	1.01 ± 0.013
CTTTTTAGGT	0.998 ± 0.012
CCTAGGCCCG	1.03 ± 0.053
TTTCGGCATT	2.4 ± 1.9
AACTTAGTAT	1.018 ± 0.01
TATGTGAGCA	0.99 ± 0.014
TTTGGGAAGC	1.02 ± 0.033
ATATTTCAGG	0.999 ± 0.027
TTTAGCACGA	1 ± 0.024
TTGGGTTAAG	0.983 ± 0.015
GTTAGAGAGC	1.06 ± 0.0068
CATCGGGGTC	1.07 ± 0.021
GTTGCCGAGT	1.024 ± 0.0048
AAAATTCTGC	1.06 ± 0.022
GGGTAAAGAT	1.02 ± 0.021
GATTTCATAG	1.02 ± 0.063
AGTTTTCAAG	1 ± 0.026
GATTTTAATG	0.981 ± 0.013
AAGACTGTTT	0.954 ± 0.026
TTGGTGGCGG	0.978 ± 0.028
TCGCTCTGTT	0.991 ± 0.011
AAAGTGATTG	0.9723 ± 0.0028

Sequence	switch fluorescence ratio
CGGGTGGTTC	0.994 ± 0.012
GCGGGGAATT	1.02 ± 0.026
ATTTTTATTT	1.07 ± 0.12
TTAGGCGGCA	0.974 ± 0.034
ACTTGGCAAA	1.16 ± 0.02
CCATGGGAAA	0.961 ± 0.03
TTTTTATGGT	0.984 ± 0.027
GTTATTATGC	0.952 ± 0.035
TAATGACCAA	1.019 ± 0.0071
GAAAATGCAT	0.99 ± 0.013
GCAATTTTTG	1.002 ± 0.0066
CGCGGTGCGG	1.005 ± 0.0076
TAATTTCTTG	1.013 ± 0.0018
GGCTCCAACG	1.06 ± 0.013
CGCAGCGGTT	1.49 ± 0.041
ACTTGGTTGG	0.9869 ± 0.00088
GATCCCCCCC	1.06 ± 0.03
AAAGGGTTCG	1 ± 0.034
GCGGGGGTTG	0.978 ± 0.039
TGATTTTAAG	0.999 ± 0.018
TAGAAACGAG	1.02 ± 0.087
ATTGACGTGT	1 ± 0.035
ATCGGGAGCC	0.959 ± 0.03
TTTATTTTCA	0.9924 ± 0.0046
ATAAATGTGT	1.01 ± 0.041
